From publication PMC5811034, “Xylem specific activation of 5’ upstream regulatory region of two NAC transcription factors (MusaVND6 and MusaVND7) in banana is regulated by SNBE-like sites” come the findings set out here.

What all share (experiment): EMSA; 10 mM Tris pH 8, 5 mM MgCl2, 10 mM KCl, 20 min (temperature not stated); 1.5% agarose gel
Common to all, as to conditions: protein: recombinant, chain copies: 2
In general terms: In EMSA bound probe runs differently from free probe, usually more slowly.

For one data set, the target named is T1, VND3 (MusaVND3) (Musa (banana), cultivar  for …, UniProt A0A0G2UF56 1-336).
T1 sequence: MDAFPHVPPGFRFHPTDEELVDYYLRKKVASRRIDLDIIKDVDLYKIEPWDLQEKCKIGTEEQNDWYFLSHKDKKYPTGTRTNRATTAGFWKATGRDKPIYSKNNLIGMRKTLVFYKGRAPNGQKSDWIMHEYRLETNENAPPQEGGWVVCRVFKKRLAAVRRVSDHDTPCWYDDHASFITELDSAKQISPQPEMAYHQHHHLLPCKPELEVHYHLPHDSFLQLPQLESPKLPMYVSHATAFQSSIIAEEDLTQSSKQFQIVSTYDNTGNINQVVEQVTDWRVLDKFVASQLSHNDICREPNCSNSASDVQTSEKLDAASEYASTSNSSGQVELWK

The next data set addresses T2, VND1 (MusaVND1) (Musa (banana), cultivar  for …, UniProt A0A0U3BXB0 1-329).
T2 sequence: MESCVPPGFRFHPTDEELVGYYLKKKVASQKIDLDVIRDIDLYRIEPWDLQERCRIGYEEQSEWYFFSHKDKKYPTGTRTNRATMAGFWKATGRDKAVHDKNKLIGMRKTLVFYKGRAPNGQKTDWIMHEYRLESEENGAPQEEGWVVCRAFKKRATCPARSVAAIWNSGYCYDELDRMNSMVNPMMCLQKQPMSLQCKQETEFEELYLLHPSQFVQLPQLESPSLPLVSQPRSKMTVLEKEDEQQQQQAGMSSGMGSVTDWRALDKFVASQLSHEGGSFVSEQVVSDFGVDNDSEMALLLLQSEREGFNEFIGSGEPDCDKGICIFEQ

The target of the next data set is T3, VND2 (MusaVND2) (Musa (banana), cultivar  for …, UniProt A0A0G2UKP9 1-329).
T3 sequence: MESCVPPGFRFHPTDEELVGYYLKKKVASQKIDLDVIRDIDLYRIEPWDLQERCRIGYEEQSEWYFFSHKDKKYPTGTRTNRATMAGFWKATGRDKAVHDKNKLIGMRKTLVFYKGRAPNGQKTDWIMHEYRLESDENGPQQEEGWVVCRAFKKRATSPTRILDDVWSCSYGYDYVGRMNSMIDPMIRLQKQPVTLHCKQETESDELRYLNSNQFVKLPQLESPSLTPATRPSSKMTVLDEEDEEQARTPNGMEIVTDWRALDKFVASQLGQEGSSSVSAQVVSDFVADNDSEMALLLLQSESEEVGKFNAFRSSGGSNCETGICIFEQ

B1: SNBE-like site PMusaVND7 (-186 to -167), 38 bp (dsDNA)
DNA 1: AATTCGATAGCCTTTGGCGTGCACTCAAAGAAATTGGT
DNA 2: ACCAATTTCTTTGAGTGCACGCCAAAGGCTATCGAATT
As for B1, the binding result with VND3 (MusaVND3) (TGGCGTGCACTCAAAGAAA mutant), in the data set with VND1 (MusaVND1) (TGGCGTGCACTCAAAGAAA mutant) and in the data set with VND2 (MusaVND2) (TGGCGTGCACTCAAAGAAA mutant) was “binds” throughout.

B2: SNBE-like site PMusaVND6 (-220 to -201), 38 bp (dsDNA)
DNA 1: AATTCGATAGCCTTAGTTGTAGGGCTCAAGATTTTGGT
DNA 2: ACCAAAATCTTGAGCCCTACAACTAAGGCTATCGAATT
As for B2, the binding result with VND3 (MusaVND3) (AGTTGTAGGGCTCAAGATT mutant), with VND1 (MusaVND1) (AGTTGTAGGGCTCAAGATT mutant) and with VND2 (MusaVND2) (AGTTGTAGGGCTCAAGATT mutant) was “binds” throughout.

B3: mSNBE PMusaVND6 (dsDNA)
DNA 1: CCTTCGTAAAAGGGCTCTTTAGGTTGG
DNA 2: CCAACCTAAAGAGCCCTTTTACGAAGG
On to B3, for which the binding result with VND3 (MusaVND3), in the data set with VND1 (MusaVND1) and with VND2 (MusaVND2) was “no binding” in each case.

B4: mSNBE PMusaVND7 (dsDNA)
DNA 1: CCTTCGGAAAGCACTCATTTAGGTTGG
DNA 2: CCAACCTAAATGAGTGCTTTCCGAAGG
With B4, the binding result with VND3 (MusaVND3), with VND1 (MusaVND1) and with VND2 (MusaVND2) was “no binding” in each case.
